This note sets out measurements from publication PMC4509860 (Nature chemical biology, 2015).

The chains are these.
B5: FITC-labeled TbtA leader peptide (peptide)
chain: SRRGSMLNLSDLPMDVFEMADSGMEVESLTAGHGMPEVGA
modifications: not fully specified (N-terminus); also: FITC label

Among the targets are HcaF D21A (Bacillus sp. Al Hakam); HcaF wild-type (Bacillus sp. Al Hakam); HcaF F35A (Bacillus sp. Al Hakam); TbtF L24A (Thermobispora bispora); TbtF F68A (Thermobispora bispora); TbtF D19A (Thermobispora bispora); TbtF/G (Thermobispora bispora); TbtF V30A (Thermobispora bispora); TbtF Q74A (Thermobispora bispora); TbtF R71A (Thermobispora bispora); CurC wild-type (Corynebacterium urealyticum DSM 7109).

Common to all, as to assay: fluorescence polarisation
For orientation: In fluorescence polarisation assays a small probe gives low polarisation when free and higher when bound to something large.

For test [1], the target named is B5.
Test [2] addresses FITC-labeled StmA leader peptide (Streptomonospora alba, N-terminal FITC-Ahx (fluorescein isothiocyanate with an amino hexyl linker)).

No end group written: not given here. *: point of attachment. FITC = O=C1OC2(c3ccc(O)cc3Oc3cc(O)ccc32)c2ccc(NC(=S)*)cc21; Ahx = NCCCCCC(=O)O

B1: TbtF wild-type (natural protein)
chain: MIPARPVLTPGVRYAPTSDGVAFLTRDGIVSITGVSIHRWIDRIAPHLTGERSVAELTDGLAPERRAFVLRLLQALADRGLIIDAAGGREPRLERGTACALHVTETCGPYRESLPKLARSLADALTRAGLDVRLASASEPCDPERCHALVHLTAADEVGLAAAERLDRLSERWGVPIAHVVVWGGEIWRTEAGTVGEDGLPLAAGWRRLTALRPDTEERVPISPTAAVVVAGQVAADVRDRLTTATRAGRRPRLHVVEPARLTCRAHHFIPHFHTMPLTGDAPLAEELTEEEFSRRAAALMDDRTGVFTEIAEGDFGQLPLHVAVTTVADPVGLLGPAGDRPRVIGVGPDFATARYRTARAAIALYGLLAVDPRRLVDADGEPLAGPRTSAAELEDLLGRIRAGGLPAFVRAEDVRGGPPRLLPASSVFPFATARALLAGTVPTGTAVGYSEEGALRAALLDHCRERTLADLASRRVARLTPDTAPSDPVTARYLAFLRAIGLPFDVLDATGPLGVPVYVGVLDGRVVAAEAGASPGEAFRSVLEGILRGLQGIPAARSLPDTLPPVLPEAMAVPDGSPLSAEALAAALARAGLSVSVVRLDHDRRVHALIPHCVRVMVTGEESAHV
In the case of B1, in test [1], binding was characterised by a dissociation constant (Kd) of 66 nM.

B2: TbtF R79A (natural protein)
chain: MIPARPVLTPGVRYAPTSDGVAFLTRDGIVSITGVSIHRWIDRIAPHLTGERSVAELTDGLAPERRAFVLRLLQALADAGLIIDAAGGREPRLERGTACALHVTETCGPYRESLPKLARSLADALTRAGLDVRLASASEPCDPERCHALVHLTAADEVGLAAAERLDRLSERWGVPIAHVVVWGGEIWRTEAGTVGEDGLPLAAGWRRLTALRPDTEERVPISPTAAVVVAGQVAADVRDRLTTATRAGRRPRLHVVEPARLTCRAHHFIPHFHTMPLTGDAPLAEELTEEEFSRRAAALMDDRTGVFTEIAEGDFGQLPLHVAVTTVADPVGLLGPAGDRPRVIGVGPDFATARYRTARAAIALYGLLAVDPRRLVDADGEPLAGPRTSAAELEDLLGRIRAGGLPAFVRAEDVRGGPPRLLPASSVFPFATARALLAGTVPTGTAVGYSEEGALRAALLDHCRERTLADLASRRVARLTPDTAPSDPVTARYLAFLRAIGLPFDVLDATGPLGVPVYVGVLDGRVVAAEAGASPGEAFRSVLEGILRGLQGIPAARSLPDTLPPVLPEAMAVPDGSPLSAEALAAALARAGLSVSVVRLDHDRRVHALIPHCVRVMVTGEESAHV
Regarding B2, binding in test [1] was put at a Kd of 79 nM.

B3: StmE L73A (natural protein)
chain: MRPNVQIVSRDGDNFVLNLRNGEYWHLNSSAYTMLTRIADGETVDEVARDISAATSAPEQTVRDDLTEAVDQLRKAKLVEVRHS
In the case of B3, in [2], the dissociation constant Kd was greater than 10000 nM.

B4: TbtG wild-type (enzyme)
chain: MSDALAAAIIGAGLLADELAAAFRPYGEVIRLDEVERAETEAHRLRALVMACDGWDTSIYRETRERCRRLGIPWLPVRTEHGIAVIGPLERPGEPGCAHCFELRRERARPDAAAYRAILNHHGPELAKRPSPYLDELAAATIAALGVRMIDQGSGCHVWYVRLNGLTVERHAFLPEPLCPECGSLPMDDRDSAVIVLRSQPKRAPDDYRTRDIVDELDALVADYVDGESGLIRPLVRDTQGGLVIAGAMLPLRFAGGSEPGVGRTRGYRTSEVTAILEALERWGGVEPGGKRTVIRAAFRDIAADALDPRTLGVHSPEAYAAEDFPFRPFTEDEETEWVWGYSFARRSPILVPETVAYYYVHRDRPRQERPFLYEISNGCALGSGMEEAILYGILEVVERDAFLMTWYGRLGVPRIDLDSAKNRMVPLQAAAISAETGYRIEVYDTTMEHGIPSVWALAIRGGEEPTAAPRPRMVCAAAAHLDPEQAVLSALSELGPLLADLLRRYPDEAERARRMVDDPGLVTTMHDHSTLYGADEAFGRLEFLTGTASTRDLAAMRESTVAFRSADLRDDLLEVIGRILAEGMDVIVVDQTTPEHRVHGFTCVKVLIPGMIPMTFGHRNRRLDGLTRPLVIPYRLGYRPAPLTPEALNPHPHPFP
In test [1], B4 yielded a dissociation constant (Kd) greater than 10000 nM.

On to SGSMNQFQQELQSLNLNDYQTGNVVYWDPQQSQYPYYYIQDDAR (not fully specified (N-terminus); also: FITC label) [FITC-labeled HcaA leader peptide], for which the results for the Kd with HcaF D21A, with HcaF wild-type and in the test with HcaF F35A were 130 nM, 89 nM and 1700 nM, respectively.

Take B5: the Kd was 65 nM with TbtF L24A; 7700 nM with TbtF F68A; 57 nM with TbtF D19A; 66 nM in the test with TbtF/G; 210 nM with TbtF V30A; 49 nM with TbtF Q74A. The same molecule gave a Kd with TbtF R71A of 190 nM.

As to {FITC-Ahx}-GMSTLISKLPPAVSTDSSKIVSEVQAFEPT [FITC-labeled CurA leader], the affinity with CurC wild-type, expressed as Kd, was 7000 nM.

One may read the Kd as the free concentration of one partner at which half of the binding sites on the other are occupied at equilibrium, for simple one-to-one binding.
